Data from patent US20250295734A1, “ANTICOAGULANT PROTEINS AND THEIR USE FOR TREATING DISEASES ASSOCIATED WITH THE ACTIVATION OF NEUTROPHILS” (BIOXODES, priority 2018, published 2025).
Values joined by “and” are separate entries in the source; they are usually repeats but may differ in a detail not shown here. Identical values can stand only once. “Also recorded” adds a separate entry of the source.

Tests used:
human washed platelets = assay: In vitro platelet aggregation assay; format: cell-based
Experimental: Blood from healthy human donors, who had not taken anti-platelet agents within the 15 days prior to collection, was collected in citrated tubes and centrifuged for 13 min at 200 g. The platelet-rich plasma was collected and centrifuged for 13 min at 900 g in Tyrode buffer (138 mM NaCl, 2.9 mM KCl, 12 mM NaHCO3, 5.5 mM glucose, 1.8 mM CaCl2 and 0.4 mM MgCl2, pH 7.4) containing 0.2% BSA, apyrase 0.02 U/mL and PGI2 500 nM. Washed platelets were resuspended in the Tyrode/BSA 0.2%/apyrase/PGI2 solution and centrifuged at 900 g for 13 min. Platelets were resuspended in a Tyrode/BSA 0.2% solution at a concentration of 3.10^8 platelets/mL. Platelets were kept at 37° C. for 30 min in a solution containing […]. Next, platelets were incubated at 37° C. under agitation for 5 to 10 minutes in an aggregometer APACT 4004 with ADP (adenosine diphosphate), TRAP (Thrombin Receptor-Activating Peptide) and/or Ir-CPI.
The effect of Ir-CPI on platelet aggregation was assessed in vitro by using isolated human washed platelets (n=1).

[1] = system: platelet accumulation and fibrin generation in Panc02 tumor-bearing mice; assay: Laser injury in pancreatic cancer-bearing mice (cancer-associated thrombosis model); format: in vivo, mice (C57BL/6JRj); conditions: for fibrin generation compared to NaCl cancer mice / platelet accumulation compared to NaCl cancer mice: tumor-bearing mice
Experimental: Murine Panc02 cells (mouse pancreatic ductal adenocarcinoma cell line) were cultured to a 80% confluence in RPMI-1640 medium (Life Technologies) supplemented with 10% FCS (PAA), 1000 U/mL penicillin (Life Technologies), 100 μg/mL streptomycin (Life Technologies) and 0.1% fungizone (Life Technologies) at 37° C. in a humidified atmosphere with 5% CO2. Once in the exponential growth phase, cells were washed three times with PBS and briefly exposed to non-enzymatic cell dissociation buffer (Life
Technologies) to dislodge the cells. The cells were carefully washed three times, resuspended in PBS, and diluted to the desired concentration.
Five-week-old C57BL/6 mice were injected subcutaneously in the right flank with a tumor cell suspension (10^6 cells in 100 μL of PBS). When the tumor became palpable (0.2 cm), measurements in two dimensions were performed with a caliper, and the volume of each tumor was calculated according to the formula for the volume of an ellipsoid: π/6×a(b)^2, where a is the largest diameter and b the smallest diameter of the tumor.
Intravital video-microscopy of the cremaster muscle microcirculation was done as previously described (Falati et al., 2002) and as described hereinabove (see Example 1).
Vessel wall injury was induced with a Micropoint Laser System (Photonics Instruments) as described hereinabove (see Example 1).
Platelet and fibrin accumulation after injury were monitored and detected as indicated hereinabove (see Example 1).
Tumor-bearing mice were attributed to the Ir-CPI-treated group (Ir-CPI cancer) or to the control group (NaCl cancer). Moreover, cancer-free mice treated with NaCl (NaCl cancer-free) were also used as negative control. All mice were submitted to laser injuries in arterioles of the cremaster muscle to trigger thrombosis. Ir-CPI treated mice received either a low or a high dose of the investigative product.
Platelet accumulation and fibrin generation on the injured vessel walls were monitored using the following fluorescently labeled antibodies: DyLight649-labeled anti-GPIb antibody and Alexa Fluor 488-conjugated anti-fibrin antibody, respectively.

[2] = system: neutrophils isolated from bone marrow of femurs of mice; assay: Neutrophil activation following incubation with TNFα (flow cytometry); format: cell-based, mice (C57BL/6)
Experimental: Neutrophils were isolated from the bone marrow of femurs of mice (C57BL/6) as previously described (Hu 2012), using FR-1-coupled magnetic beads (anti-Ly6G Microbead Kit, Miltenyi Biotec). For activation with TFNα, cells were harvested, centrifugated and incubated during 30 min with or without 2 ng/ml of TNFα in Hanks solution (Gibco). Next, neutrophils were incubated with Ir-CPI (0.65 or 2 μM) in Hanks solution (1 h at 37° C.). For activation with ATP, cells were harvested, centrifugated and incubated with ATP 10 μM and Ir-CPI (0.65 or 2 μM) in Hanks solution (1 h at 37° C.). After washing of cells, expression of CD11b, activated CD11b or Ly6G was assessed by flow cytometry (Beckman Coulter Gallios). Antibodies used for neutrophil identification and activation analyses were IRR IgG1-FITC (irrelevant antibody), anti-CD45-APC, anti-Ly6G-PE and anti-CD11b-FITC or Alexa Fluor 647 anti-activated CD11b-. Analysis of results was performed using the Kaluza software (Beckman Coulter). […]
Neutrophils isolated from bone marrow of femurs of mice were submitted to different in vitro experimental conditions (untreated control, priming with TNFα and/or incubation with Ir-CPI) to assess the effect of Ir-CPI on their activation status. The activation status was assessed by analyzing the percentage of CD11b expression at the surface of neutrophils (FIG. 16).

FXI = FXI (Homo sapiens, UniProt P03951); conditions: cited from earlier work
plasminogen = plasminogen (Homo sapiens, UniProt P00747); conditions: cited from earlier work
Sequence of plasminogen (P00747 20-810 limits assumed, species assumed): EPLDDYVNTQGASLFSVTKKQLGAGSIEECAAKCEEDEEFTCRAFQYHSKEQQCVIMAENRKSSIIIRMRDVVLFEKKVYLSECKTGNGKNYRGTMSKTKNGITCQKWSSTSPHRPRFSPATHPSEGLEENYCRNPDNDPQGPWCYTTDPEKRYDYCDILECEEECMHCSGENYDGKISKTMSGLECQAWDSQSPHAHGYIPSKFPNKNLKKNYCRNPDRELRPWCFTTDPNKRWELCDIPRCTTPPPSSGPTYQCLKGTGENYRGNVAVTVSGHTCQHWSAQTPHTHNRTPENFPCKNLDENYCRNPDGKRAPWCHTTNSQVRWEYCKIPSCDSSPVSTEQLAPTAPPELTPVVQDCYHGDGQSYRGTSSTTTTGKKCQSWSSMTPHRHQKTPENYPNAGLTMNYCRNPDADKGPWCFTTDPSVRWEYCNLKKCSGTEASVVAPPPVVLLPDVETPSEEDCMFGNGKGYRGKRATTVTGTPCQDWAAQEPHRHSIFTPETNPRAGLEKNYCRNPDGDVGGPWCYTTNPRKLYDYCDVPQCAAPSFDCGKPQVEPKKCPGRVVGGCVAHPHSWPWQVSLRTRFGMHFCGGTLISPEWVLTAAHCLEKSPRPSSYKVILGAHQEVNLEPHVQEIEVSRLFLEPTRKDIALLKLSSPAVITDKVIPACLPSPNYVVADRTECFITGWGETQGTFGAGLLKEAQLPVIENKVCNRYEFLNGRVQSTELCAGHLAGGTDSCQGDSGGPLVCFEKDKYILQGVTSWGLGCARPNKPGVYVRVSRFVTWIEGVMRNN

[3] = system: venous thrombus formation; conditions: dose-dependent; cited from earlier work
[4] = Ir-CPI 500 μg/100 μL injected alone and then TRAP 20 μM at about 230 sec
[5] = TRAP 20 μM + Ir-CPI 500 μg/100 μL injected together
[6] = agent alone (TRAP 20 μM, ADP 20 μM or Ir-CPI 500 μg/100 μL), n=1
[7] = High dose: 20.5 mg/kg bolus + 3.7 mg/kg/h
[8] = Low dose: 10.3 mg/kg bolus + 1.9 mg/kg/h

B1: Ir-CPI: Ixodes ricinus salivary gland polypeptide, contact phase inhibitor, MW=7660 Da; sequence SEQ ID NO: 1 or SEQ ID NO: 2 (protein)
chain: ANHKGRGRPAKCKLPPDDGPCRARIPSYYFDRKTKTCKEFMYGGCEGNENNFENITTCQEECRAKKV
For B1, which “Aggregation Latency” value (human washed platelets; [4]) is on record?
The value was 231.2 s.

What about the “Aggregation Max” value (human washed platelets; [4]) of the same molecule?
Its value is 73.5%.

What about the “Aggregation Slope” value (human washed platelets; [4]) of the same molecule?
Its value is 31.1 %/min.

What about the “activation of platelet aggregation” value (human washed platelets; Ir-CPI alone added to washed platelets) of the same molecule?
The value was “did not activate platelet aggregation”.

What about the “effect on TRAP-induced platelet aggregation” value (human washed platelets; Ir-CPI and TRAP, compared to TRAP alone) of the same molecule?
Its value is “did not significantly modify platelet aggregation; also recorded: does not inhibit platelet aggregation”.

What about the “Aggregation Latency” value (human washed platelets; [5]) of the same molecule?
The value was 98.6 s.

And the “Aggregation Max” value (human washed platelets; [5])?
The value was 71.7% and 71.8%.

What about the “Aggregation Slope” value (human washed platelets; [5]) of the same molecule?
Its value is 35.1 %/min.

And the “Aggregation Latency” value (human washed platelets; [6])?
Its value is 70.0 s.

What about the “Aggregation Max” value (human washed platelets; [6]) of the same molecule?
Its value is 4.1%.

And the “Aggregation Slope” value (human washed platelets; [6])?
The value was 16.2 %/min.

What about the “fibrin generation compared to NaCl cancer mice” value [1, 7] of the same molecule?
The value was “significant decrease”.

What about the “platelet accumulation compared to NaCl cancer mice” value [1, 7] of the same molecule?
Its value is “significant decrease”.

What about the “integrated fluorescence intensity of platelet labeling (area under curve)” value ([1]; High dose, vs NaCl cancer-free mice (*p<0.05) and NaCl cancer mice (***p<0.001)) of the same molecule?
Its value is “significantly lower”.

What about the “fibrin generation compared to NaCl cancer mice” value [1, 8] of the same molecule?
Its value is “significant decrease”.

And the “platelet accumulation compared to NaCl cancer mice” value [1, 8]?
Its value is “significant decrease”.

And the “CD11b expressed at cell surface” value ([2]; neutrophils primed with TNFα, Ir-CPI 2 μM, *p<0.05)?
The value was “significant reduction”.

What about the “expression of CD11b” value ([2]; untreated neutrophils, Ir-CPI 0.65 and 2 μM) of the same molecule?
Its value is “no effect”.

What about the “binding to FXI zymogen” value (FXI) of the same molecule?
Its value is “but not to their zymogen forms; also recorded: unable to bind”.

And the binding to plasminogen (plasminogen)?
The binding to plasminogen was “unable to bind”.

And the venous thrombus formation [3]?
Its venous thrombus formation is “reduces venous thrombus formation”.
